How the values were obtained:
[1] = test system: bone marrow cells isolated from adult C57BL/6 mice; assay: Small molecule library screens on bone marrow cells in serum free N2B27 medium; type: cell-based, mouse; details: second screening, together with GDC0879
[2] = test system: mouse GMP; assay: Granulocyte differentiation of ex vivo expanded GMPs; type: cell-based; details: RPMI 1640+10% FBS, 20 ng/mL GCSF, 72 h
Protocol: Long-term ex vivo expanded GMPs can differentiate into functional and mature granulocytes. Granulocyte colony-stimulating factor (G-CSF) is a known hematopoietic growth factor that regulates neutrophils production in the bone marrow. G-CSF was used to induce mouse GMP differentiation towards the neutrophil lineage. After culturing for 3 weeks in E7^+SCF/GDC/CHIR conditions, GMPs were re-plated in RPMI 1640+10% FBS medium and stimulated with 20 ng/mL of GCSF. Seventy-two hours after stimulation with GCSF, GMPs differentiated into cells that morphologically resembled granulocytes (e.g., see FIG. 3F). To further verify the identity of these cells, the cells were harvested and stained with Gr1 and CD115 antibodies and analyzed by flow cytometer. Granulocytes are Gr1^+ and CD115^−.

[3] = test system: ex vivo expanded GMPs; assay: Macrophage differentiation of ex vivo expanded GMPs; type: cell-based, mouse; details: RPMI 1640+10% FBS+20 ng/mL MCSF, 7 days
Protocol: FIG. 3A-I presents results of macrophages differentiation from GMPs. […] P7 GMPs were cultured in RPMI 1640+10% FBS+20 ng/mL MCSF for 7 days. Mature macrophages were re-plated, fixed and stained for CD11b and F4/80. (B) Provides the results of an in vitro functional test of the differentiated macrophages. 1×10^5 GMPs (P7) or 1×10^6 whole BM cells were seeded into 1 well of 6-well plate in RPMI 1640+10% FBS+20 ng/mL MCSF. 7 days later, mature bone marrow-derived macrophages (BMM) and GMP-derived macrophages (GMPM) were trypsinized, counted and reseeded into 48-well plate at 1×10^5 cells per well in RPMI 1640+10% FBS. After overnight, cells were stimulated with 500 ng/mL LPS for 6 or 24 h. The inflammatory cytokines in the supernatant were measured by ELISA. (C) Provides images of another in vitro functional test of the differentiated macrophages. Green: E. coli-GFP. Red: tdTomato^+ macrophages. Top image, GFP labeled E. coli were co-cultured with tdTomato^+ GMPs-derived macrophages. Consecutive pictures were taken each 30′ under Zeiss LSM-780 confocal microscope for 1 h. […] (E), cells were harvested and FITC positive cells were analyzed by using BD Arial flow cytometry. […]
Long-term ex vivo expanded GMPs can differentiate into functional and mature macrophages. […] After 6 or 24 h, the supernatant was harvested and the concentrations of inflammatory cytokines TNFα, IL6 and IL10 by ELISA were measured.

With `O=C(NCCCn1ccnc1)c1cc(-c2ccco2)on1` [SKL2001] the “expansion of the uniform round-shaped cells” value [1] was “acted synergistically with GDC0879 to promote the expansion”.

B1: GCSF: granulocyte colony-stimulating factor, used at 20 ng/mL for granulocyte differentiation (protein, UniProt P09919 31-207, looked up)
Granulocyte …: TPLGPASSLPQSFLLKCLEQVRKIQGDGAALQEKLVSECATYKLCHPEELVLLGHSLGIPWAPLSSCPSQALQLAGCLSQLHSGLFLYQGLLQALEGISPELGPTLDTLQLDVADFATTIWQQMEELGMAPALQPTQGAMPAFASAFQRRAGGVLVASHLQSFLEVSYRVLRHLAQP
In the case of B1, the “cells derived from GMPs that were Gr1+ CD115−” value [2] is reported as “more than 80%”.

B2: MCSF: macrophage colony-stimulating factor, used at 20 ng/mL for macrophage differentiation (protein, UniProt P09603 33-554, looked up)
Macrophage colony-stimulating …: EEVSEYCSHMIGSGHLQSLQRLIDSQMETSCQITFEFVDQEQLKDPVCYLKKAFLLVQDIMEDTMRFRDNTPNAIAIVQLQELSLRLKSCFTKDYEEHDKACVRTFYETPLQLLEKVKNVFNETKNLLDKDWNIFSKNCNNSFAECSSQDVVTKPDCNCLYPKAIPSSDPASVSPHQPLAPSMAPVAGLTWEDSEGTEGSSLLPGEQPLHTVDPGSAKQRPPRSTCQSFEPPETPVVKDSTIGGSPQPRPSVGAFNPGMEDILDSAMGTNWVPEEASGEASEIPVPQGTELSPSRPGGGSMQTEPARPSNFLSASSPLPASAKGQQPADVTGTALPRVGPVRPTGQDWNHTPQKTDHPSALLRDPPEPGSPRISSLRPQGLSNPSTLSAQPQLSRSHSSGSVLPLGELEGRRSTRDRRSPAEPEGGPASEGAARPLPRFNSVPLTDTGHERQSEGSFSPQLQESVFHLLVPSVILVLLAVGGLLFYRWRRRSHQEPQRADSPLEQPEGSPLTQDDRQVELPV
With B2 the “cells expressing macrophage markers CD11b and F4/80” value [3] was “almost all the cells expressed both CD11b and F4/80”.
